From patent publication US20170334995A1 (Boehringer Ingelheim, published 2017)
Residue numbers refer to the chain shown, from its start. Blank lines part the entries; values can stand above or below the binder they belong to.

Key:
[1] = target: T1, human PD1 expressed on the surface of CHO cells (human, UniProt Q15116 25-288); test: ligand blocking on PD1-expressing CHO cells, competitor biotin-PD-L2
T1 construct: whole, on cells; also called PD1 expressing CHO cells
Method: (§1) The mixture was incubated for 1 hour at 37 degrees celsius. […] Percentage inhibition values were calculated in Excel and curve fitting was done with GraphPad Prism. Data points of the curve are mean values of triplicate measurements.

[2] = target: T1, human PD1 expressed on the surface of …; test: blocking assay on cells: biotin-labelled human PD-L1 binding to PD1-expressing CHO cells, Europium-streptavidin fluorescence, % inhibition against antibody concentration [A]
Method: as §1

[3] = target: T1, human PD1 expressed on the surface of …; test: blocking assay on cells: biotin-labelled human PD-L2 binding to PD1-expressing CHO cells, Europium-streptavidin fluorescence, % inhibition against antibody concentration [D]
Method: as §1

[4] = target: T1, human PD1 expressed on the surface of …; test: ligand blocking on PD1-expressing CHO cells, competitor biotin-PD-L1
Method: as §1

[5] = target: T2, human PD1 ECD (human, UniProt Q15116 21-170); test: SPR (ProteOn XPR36), antibody captured on Protein A/G, PD1 ECD as analyte, 1:1 Langmuir fit
T2 construct: range 21-170; also called recombinant monomeric human PD1; recombinant human PD1
T2 sequence (Q15116 21-170 limits assumed, form in doubt): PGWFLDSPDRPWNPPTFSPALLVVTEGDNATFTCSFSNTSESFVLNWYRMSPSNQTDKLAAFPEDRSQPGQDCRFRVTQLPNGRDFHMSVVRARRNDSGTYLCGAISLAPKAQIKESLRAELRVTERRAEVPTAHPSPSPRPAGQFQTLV
Method: Binding affinities to recombinant monomeric human PD1 were measured by SPR using a ProteOn XPR36 instrument. […] Human PD1 ECD was injected over the captured antibodies for 600 sec at a flowrate of 30 ul/min and a dissociation for 1200 sec.

[6] = target: T1, human PD1 expressed on the surface of …; test: blocking assay on cells: biotin-labelled human PD-L2 binding to PD1-expressing CHO cells, Europium-streptavidin fluorescence, % inhibition against antibody concentration [E]
Method: as §1

[7] = target: T1, human PD1 expressed on the surface of …; test: blocking assay on cells: biotin-labelled human PD-L1 binding to PD1-expressing CHO cells, Europium-streptavidin fluorescence, % inhibition against antibody concentration [B]
Method: as §1

[8] = target: T3, Human LAG3 ECD-Fc (human, UniProt P18627 23-450); test: SPR, antibody captured on Protein A/G, LAG3 ECD-Fc as analyte, 1:1 Langmuir fit
T3 construct: extracellular domain; 23-450 is stated only for the immunogen; also called recombinant human LAG3 extracellular domain fused to human Fc; hLAG3-hlgFc; not shown: Fc
T3 sequence (looked up): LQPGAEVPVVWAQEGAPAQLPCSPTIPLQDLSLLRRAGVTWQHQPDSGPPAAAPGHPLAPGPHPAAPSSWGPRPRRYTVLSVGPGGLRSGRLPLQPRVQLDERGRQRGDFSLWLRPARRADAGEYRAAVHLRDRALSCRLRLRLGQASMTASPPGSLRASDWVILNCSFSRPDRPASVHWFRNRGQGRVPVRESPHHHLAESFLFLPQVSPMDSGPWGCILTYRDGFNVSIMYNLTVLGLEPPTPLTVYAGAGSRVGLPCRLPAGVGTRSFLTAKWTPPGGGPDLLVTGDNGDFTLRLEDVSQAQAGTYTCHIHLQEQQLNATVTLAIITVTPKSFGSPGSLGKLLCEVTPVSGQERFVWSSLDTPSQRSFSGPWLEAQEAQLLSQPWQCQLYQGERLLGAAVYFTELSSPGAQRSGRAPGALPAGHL

[9] = target: T3, Human LAG3 ECD-Fc; test: blocking assay by FACS: LAG3 ECD-Fc pre-incubated with the antibody, then binding to MHC II on Raji cells detected with PE anti-human IgG, % inhibition against antibody concentration
[10] = target: T4, human LAG3 (ECD) (human, UniProt P18627 23-450); test: hybridoma screening
T4 construct: range 23-450; the screening reagent is called only 'human LAG3 (ECD)'; also called human LAG3 ECD protein
T4 sequence (looked up): T3 sequence (looked up)

T1 sequence (Q15116 25-288): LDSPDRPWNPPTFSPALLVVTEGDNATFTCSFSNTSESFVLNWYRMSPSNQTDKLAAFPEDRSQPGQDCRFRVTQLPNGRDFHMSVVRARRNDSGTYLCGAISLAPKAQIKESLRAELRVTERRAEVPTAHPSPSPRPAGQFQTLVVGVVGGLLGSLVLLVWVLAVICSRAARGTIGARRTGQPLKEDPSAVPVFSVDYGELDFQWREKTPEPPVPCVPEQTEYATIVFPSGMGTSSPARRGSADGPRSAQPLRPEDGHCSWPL

B1: PD1-1 (antibody, human IgG4 S228P, kappa, V domains shown)
VH: EVMLVESGGGLVQPGGSLRLSCTASGFTFSASAMSWVRQAPGKGLEWVAYISGGGGDTYYSSSVKGRFTISRDNAKNSLYLQMNSLRAEDTAVYYCARHSNVNYYAMDYWGQGTLVTVSS
VL: EIVLTQSPATLSLSPGERATMSCRASENIDTSGISFMNWYQQKPGQAPKLLIYVASNQGSGIPARFSGSGSGTDFTLTISRLEPEDFAVYYCQQSKEVPWTFGQGTKLEIKR
notes: Humanized derivative of murine 77E11; the HC is IgG4 (Pro), kappa light chain; also called anti-PD1 antibody PD1-1
- IC90 [1]: 2.09 nM
- IC50 (read off the curve) [2]: ~0.8 nM
- IC50 (read off the curve) [3]: ~1 nM
- IC90 [4]: 2.12 nM
- Kd [5]: 16.6 nM

B4: LAG3-4 (antibody, human IgG4 S228P, kappa, V domains shown)
VH: QVTLVESGGGVVQPGRSLRLSCAFSGFSLSTSDMGVGWIRQAPGKGLEWVAHIWWDDVKRYNPALKSRFTISRDNSKNTLYLQMNSLRAEDTATYFCARIEDYGVSYYFDYWGQGTTVTVSS
VL: DIVMTQSPSFLSASVGDRVTITCKASQDVSTAVAWYQQKPGKAPKLLIYSASYRYTGVPDRFSGSGSGTDFTLTISSLQPEDFATYYCQQHYSIPLTFGQGTKLEIKR
notes: Humanized derivative of murine 496G6, human IgG4 (Pro) format, kappa; also called anti-LAG3 antibody LAG3-4
- Kd [8]: 0.1 nM

B5: LAG3-2 (antibody, human IgG4 S228P, kappa, V domains shown)
VH: QVTLKESGPTLVKPTQTLTLTCSFSGFSLSTSDMGVGWIRQPPGKALEWLAHIWWDDVKRYNPALKSRLTITKDTSKNQVVLTMTNMDPVDTATYFCARIEDYGVSYYFDYWGQGTTVTVSS
VL: B4 VL with V3Q, I21F
notes: Humanized derivative of murine 496G6, human IgG4 (Pro) format, kappa; also called anti-LAG3 antibody LAG3-2
- Kd [8]: 0.09 nM
- IC50 (read off the curve) [9]: ~0.7 nM

B6: LAG3-3 (antibody, human IgG4 S228P, kappa, V domains shown)
VH: B4 VH with R19S, I39V, A42P, F96Y
VL: B4 VL with V3Q, Q100A
notes: Humanized derivative of murine 496G6, human IgG4 (Pro) format, kappa; also called anti-LAG3 antibody LAG3-3
- Kd [8]: 0.12 nM
- IC50 (read off the curve) [9]: ~0.8 nM

Next, values leading:

- IC90 [1]: 3.64 nM
- IC50 (read off the curve) [2]: ~1 nM
- IC50 (read off the curve) [3]: ~1 nM
- IC90 [4]: 2.97 nM
- Kd [5]: 61.8 nM
B2: PD1-2 (antibody, human IgG4 S228P, kappa, V domains shown)
VH: B1 VH with V102P
VL: B1 VL
notes: Humanized derivative of murine 77E11; the HC is IgG4 (Pro), kappa light chain; also called anti-PD1 antibody PD1-2

- IC90 [1]: 1.95 nM
- IC50 (read off the curve) [6]: ~1 nM
- IC50 (read off the curve) [7]: ~0.8 nM
- IC90 [4]: 1.68 nM
- Kd [5]: 6 nM
B3: PD1-3 (antibody, human IgG4 S228P, kappa, V domains shown)
VH: B1 VH with A31K
VL: B1 VL with T31V
notes: Humanized derivative of murine 77E11; the HC is IgG4 (Pro), kappa light chain; also called anti-PD1-3; representative anti-PD1 antibody of the invention

- Kd [8]: 0.125 nM
- IC50 (read off the curve) [9]: ~1 nM
B7: LAG3-1 (antibody, human IgG4 S228P, kappa, V domains shown)
VH: B4 VH with T94V
VL: B4 VL with V3Q, T20S
notes: Humanized derivative of murine 496G6, human IgG4 (Pro) format, kappa; also called representative anti-LAG3 antibody of the invention

- Kd [8]: 0.07 nM
- IC50 (read off the curve) [9]: ~1 nM
B8: LAG3-5 (antibody, human IgG4 S228P, kappa, V domains shown)
VH: B5 VH with E101V
VL: B4 VL with V3Q, T20S, T85V
notes: Humanized derivative of murine 496G6, human IgG4 (Pro) format, kappa; also called anti-LAG3 antibody LAG3-5

- binding result [10]: binds
B9: 496G6 (antibody, V domains shown)
VH: QVTLKESGPGILQPSQTLSLTCSFSGFSLSTSDMGVGWIRQPSGKGLEWLAHIWWDDVKRYNPALKSRLTISKDTSSSQVFLMIASVDTADTATYFCARIEDYGVSYYFDYWGQGTTLTVSS
VL: DIVMTQSHKFMSTSVGDRVSFTCKASQDVNTAVAWYQQKPGQSPKLLIYSASYRYTGVPDRFTGSGSGTDFTFTISSVQAEDLALYYCQQHYSIPLTFGAGTKLELK
notes: Murine monoclonal antibody from a hybridoma; also called murine progenitor antibody 496G6; monoclonal antibody produced by 496G6
